Experimental data: PMC5386341 (Blood Cancer Journal, 2017)
One block for each binder: values may come before it.

What was measured:
cynomolgus monkey CD47 [1] = target: T1, cynomolgus monkey CD47 (Macaca fascicularis, UniProt A0A2K5X4I2); test: not stated; binding affinity of IgG2σ mAbs to human and cynomolgus monkey CD47; method is described only in the Supplementary section
T1 construct: CD47, cynomolgus monkey; also called cyno CD47

human CD47 [2] = target: T2, human CD47 (human, UniProt Q08722); test: as above
T2 construct: CD47, human; the methods are in the Supplementary section; also called integrin-associated protein

human CD47 [3] = target: T3, human CD47 (human, UniProt Q08722); test: not stated; binding affinity of IgG2σ mAbs to human and cyno CD47; the method stands in the Supplementary Information, not shown
T3 construct: CD47, human; The crystal structures used the human CD47 extracellular domain with a C15G mutation; also called integrin-associated protein

cynomolgus monkey CD47 [4] = target: T4, cynomolgus monkey CD47 (Macaca fascicularis, UniProt A0A2K5X4I2); test: as above
T4 construct: CD47, cynomolgus monkey; also called cyno CD47

Kd (cynomolgus monkey CD47 [1]): 2960 pM
Kd (human CD47 [2]): 2870 pM
B1: IgG2σ C47B161 (antibody, V domains shown)
VH: QVQLVQSGAEVKKPGASVKVSCKASGYTFTDYNMHWVRQAPGQRLEWMGDIYPYNGGTGYNQKFKGRVTITRDTSASTAYMELSSLRSEDTAVYYCARGGWHAMDSWGQGTLVTVSS
VL: DIVMTQSPLSLPVTPGEPASISCRSRQSIVHTNRYTYLAWYLQKPGQSPQLLIYKVSNRFSGVPDRFSGSGSGTDFTLKISRVEAEDVGVYYCFQGSHVPYTFGGGTKLEIK
notes: Human IgG2σ (effector function silent Fc)

Kd (cynomolgus monkey CD47 [1]): 840 pM
Kd (human CD47 [2]): 1120 pM
B2: IgG2σ C47B222 (antibody, V domains shown)
VH: EVQLVQSGAEVKKPGESLKISCKGSGYSFTDYWIGWVRQMPGKGLEWMGIIYPGDSDTRYSPSFQGQVTISADKSISTAYLQWSSLKASDTAVYYCARVGRFASHQLDYWGQGTLVTVSS
VL: EIVLTQSPATLSLSPGERATLSCRASQSVNNRLAWYQQKPGQAPRLLIHWASTRAIGIPARFSGSGSGTDFTLTISSLEPEDFAVYYCQQGASWPFTFGQGTKVEIK
notes: as for B1

Kd (human CD47 [3]): 500 pM
Kd (cynomolgus monkey CD47 [4]): 600 pM
B3: anti-CD47 mAb B6H12.2 engineered with the human IgG2σ Fc (antibody, V domains shown)
VH: EVKLVESGGDLVKPGGSLKLSCAASGFTFSGYGMSWVRQTPDKRLEWVATITSGGTYTYYPDSVKGRFTISRDNAKNTLYLQIDSLKSEDTAIYFCARSLAGNAMDYWGQGTSVTVSS
VL: DIVMTQSPATLSVTPGDRVSLSCRASQTISDYLHWYQQKSHESPRLLIKFASQSISGIPSRFSGSGSGSDFTLSINSVEPEDVGVYYCQNGHGFPRTFGGGTKLEIK
notes: heavy chain of B6H12.2 with a human IgG2σ Fc; light chain of B6H12.2; also called IgG2σ B6H12.2
